B1: phage clone 11B7 (scFv on phage) (scFv, V domains shown)
VH: QVQLVQSGGGVVQPGRPLRLSCAASGFNLGSYAMSWVRQAPGKGLEWVSAISGSGGSTYYADSVKGRFTISRDNSKNTLYLQMNSLRAEDTAVYYCAKILGPGNLNYYYYYGMDVWGQGTTVTVSS
VL: SSELTQDPAVSVALGQTVRITCQGDSLRNSYASWYQQKPGQAPVLVIYGNNNRPSGIPDRVSGSRSGNTASLTITGAQAEDEADYYCNSRDSSGNHVVFGGGTELTVL
B2: phage clone 7E3 (scFv on phage) (scFv, V domains shown)
VH: QVQLVESGGGLVNPGGSLRLSCAVSGFTSSGFSINWVRQAPGKGLEWVSSISGIGDSIFYADSVKGRFTISRDNAKNLVFLQMNSVKAEDTAVYYCVRDKWGWGTYSLFDYWGQGTLVTVSS
VL: QAVLTQPPSASGTPGQRVTISCSGSSSNIASNVVSWYQQLPGTAPKVLIYSNNRRPSGVPDRFSGSKSGASASLAISGLQSDDETHYYCAAWDDSLKGPVFGGGTQLTVL
B3: phage clone 6A6 (scFv on phage) (scFv, V domains shown)
VH: EVQLVESGGGVVQPGGSLRLSCAASGFTFDDYAMHWVRQAPGKGLEWVSLISGDGGSTYYADSVKGRFTISRDNSKNSLYLQMNSLKASDTAMYYCARPRWGRYSSSWPFDYWGQGTLVTVSS
VL: QSALTQPASVSGSPGQSITISCTGTSSDVGTYNYVSWYQQHPGKAPKLMIYDVTDRPSGISNRFSGSKSGNTASLTISGLQAEDEGNYYCSSYTSNRSWVFGGGTKLTVL
B4: phage clone 3B3 (scFv on phage) (scFv, V domains shown)
VH: EVQLVQSGGGLVKPGGSLRLSCAASGFTFSSYSMNWVRQAPGKGLEWVSSISSSSSYIYYADSVKGRFTISRDNAKNSLYLQMNSLRAEDTAVYYCARVRPPYGMDVWGQGTLVTVSS
VL: NIQMTQSPSSVSASVGDTVTISCRASQGISNWLGWYQQRPGEAPKLLIYAASHLQSGVPSRFSGSGSGTDFVLTITSLQPEDFATYYCQQSNSFPLAFGGGTKLEIK

What follows are binders tested against hTEM8-his antigen (hTEM8 containing 6 His tags) (human) (UniProt Q9H6X2) (assay: phage supernatant ELISA on hTEM8-his).
Sequence of hTEM8-his antigen (hTEM8 containing 6 His tags) (human) (Q9H6X2 33-321 limits assumed): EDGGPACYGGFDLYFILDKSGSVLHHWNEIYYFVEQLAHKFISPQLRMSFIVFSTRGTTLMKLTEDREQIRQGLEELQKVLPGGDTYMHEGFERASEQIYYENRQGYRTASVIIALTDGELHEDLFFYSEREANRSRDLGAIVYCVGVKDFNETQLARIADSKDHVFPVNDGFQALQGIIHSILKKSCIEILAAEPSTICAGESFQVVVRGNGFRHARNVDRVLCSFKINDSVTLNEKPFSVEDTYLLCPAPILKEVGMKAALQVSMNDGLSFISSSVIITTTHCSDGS

Binder | hTEM8-his ELISA (OD450)
B1 | 2.43
B2 | 2.5
B3 | 2.67
B4 | 2.86

From patent EP4722246A1, “TEM8-TARGETED ANTIBODY OR ANTIGEN-BINDING FRAGMENT THEREOF, AND USE THEREOF” (Inxmed (Nanjing) Co., Ltd., priority 2023, dated 2024)
